{"source": "paper PMC8861115", "about": "“Characterization and structural analyses of a novel glycosyltransferase acting on the β-1,2-glucosidic linkages” (The Journal of Biological Chemistry, 2022)", "proteins": {"B1": {"name": "IaSGT (IALB_1185) (Ignavibacterium album JCM 16511) (protein)", "chain": "MKPHNSEKYFVKNGQPHFLISGEVHYFRINPKLWRNHLQLLKQTGADTVSTYIPWDWHEIEEDDFDFEGKTHPARNLIRFIKLCKEENLDLIVKPGPYILAEYENQGLPSWLLKKLSKNAFALDENGNVISPDLVSYLSDEFLEYTFKWYDKVMPIISKHQKEHYGPITMMQLCNEIGVFQWLSGKSDYNPKVINLYKEFIIQRYKTIEKLNSVYSTNYNSFDDLKAPSGKIKLRSDYCAYFDFHLFFREYYNKYISILKNKIRSFGINIKLTHNIPGWIYGNASELPMLISTYSEIMKNHPDIIFGLDHIPEFVSFRNAHSDLACNKILEAMQPEAPVWAAEFQAGTREHHVKAYAKDLETFYIASLAHGIKGFNYYMFSQGINPEGKGFYGKTFYFQTALDAASNKLALYDSIKKVNRFIRKEQKDLLRTNVNSEICVGFYKPYFFTELISSQLLKEKKLNVEELGLYIDPRFLREEILFNGLLRGLQTLNYNYDVVDLENCDLKSLTAYKQLWITSAEFMDAETQNLLSEFVLNGGNLILYPAVPTLDNYLNRCEILKNNFGIEFITKDSSHKVSAFGIEDVFTAFSKKQIYNDTNSKPIAFTQENEICGIRKKIGKGELTILGFAFGYTSDEHLELIDKLVKLNKIKRELFVSDKDIQFVVRENNKSRYIFFLNYHNERKTFNYRKSSELKKKKSEEISIAPFSYKVIKENK", "notes": "full length (no N-terminal signal peptide), his6-tag fusion from pET30a(+) NdeI/XhoI, E. coli BL21(DE3); homodimer"}}, "conditions_in_all_cases": "acceptor, donor Sop2 fixed 1 mM, pH 5.0, 37 °C", "key": {"[1]": {"substrate": "CO[C@@H]1O[C@H](CO)[C@@H](O)[C@H](O)[C@H]1O", "experiment": "hexokinase/G6PDH thio-NAD+ coupled glucose release", "assay_type": "biochemical, Ignavibacterium album", "excerpt": "(§1) hexokinase/G6PDH thio-NAD+ coupled glucose release on IaSGT (IALB_1185)"}, "[2]": {"substrate": "CCO[C@H]1O[C@H](CO)[C@@H](O)[C@H](O)[C@H]1O", "experiment": "hexokinase/G6PDH thio-NAD+ coupled glucose release", "assay_type": "biochemical, Ignavibacterium album", "excerpt": "as §1"}, "[3]": {"substrate": "OC[C@H]1O[C@H](Oc2ccc3ccccc3c2)[C@H](O)[C@@H](O)[C@@H]1O", "experiment": "hexokinase/G6PDH thio-NAD+ coupled glucose release", "assay_type": "biochemical, Ignavibacterium album", "excerpt": "as §1"}, "[4]": {"substrate": "OCc1ccc(O[C@@H]2O[C@H](CO)[C@@H](O)[C@H](O)[C@H]2O)cc1", "experiment": "hexokinase/G6PDH thio-NAD+ coupled glucose release", "assay_type": "biochemical, Ignavibacterium album", "excerpt": "as §1"}, "[5]": {"substrate": "OC[C@H]1O[C@H](Oc2ccc(O)cc2)[C@H](O)[C@@H](O)[C@@H]1O", "experiment": "hexokinase/G6PDH thio-NAD+ coupled glucose release", "assay_type": "biochemical, Ignavibacterium album", "excerpt": "as §1"}, "[6]": {"substrate": "OC[C@H]1O[C@H](OCc2ccccc2)[C@H](O)[C@@H](O)[C@@H]1O", "experiment": "hexokinase/G6PDH thio-NAD+ coupled glucose release", "assay_type": "biochemical, Ignavibacterium album", "excerpt": "as §1"}, "[7]": {"substrate": "OC[C@H]1O[C@H](Oc2ccccc2)[C@H](O)[C@@H](O)[C@@H]1O", "experiment": "hexokinase/G6PDH thio-NAD+ coupled glucose release", "assay_type": "biochemical, Ignavibacterium album", "excerpt": "as §1"}, "[8]": {"substrate": "CO[C@H]1O[C@H](CO)[C@@H](O)[C@H](O)[C@H]1O", "experiment": "hexokinase/G6PDH thio-NAD+ coupled glucose release", "assay_type": "biochemical, Ignavibacterium album", "excerpt": "as §1"}, "[9]": {"substrate": "OC[C@H]1O[C@@H](Oc2ccc(O)cc2)[C@H](O)[C@@H](O)[C@@H]1O", "experiment": "hexokinase/G6PDH thio-NAD+ coupled glucose release", "assay_type": "biochemical, Ignavibacterium album", "excerpt": "as §1"}, "[10]": {"substrate": "OCc1ccccc1O[C@@H]1O[C@H](CO)[C@@H](O)[C@H](O)[C@H]1O", "experiment": "hexokinase/G6PDH thio-NAD+ coupled glucose release", "assay_type": "biochemical, Ignavibacterium album", "excerpt": "as §1"}, "[11]": {"substrate": "O=c1ccc2cc(O[C@@H]3O[C@H](CO)[C@@H](O)[C@H](O)[C@H]3O)c(O)cc2o1", "experiment": "hexokinase/G6PDH thio-NAD+ coupled glucose release", "assay_type": "biochemical, Ignavibacterium album", "excerpt": "as §1"}, "purified protein [12]": {"substrate": "O=[N+]([O-])c1ccc(O[C@H]2O[C@H](CO)[C@@H](O)[C@H](O)[C@H]2O)cc1", "experiment": "purified protein"}, "purified protein [13]": {"substrate": "O=[N+]([O-])c1ccc(O[C@@H]2O[C@H](CO)[C@@H](O)[C@H](O)[C@H]2O)cc1", "experiment": "purified protein"}}, "data": [{"protein": "B1", "values": [{"measurement": "Km", "setting": "[1]", "value": "130 ± 30", "unit": "µM"}, {"measurement": "kcat", "setting": "[1]", "value": "1.9 ± 0.2", "unit": "s⁻¹"}, {"measurement": "kcat/Km", "setting": "[1]", "value": "14000 ± 2000", "unit": "M⁻¹ s⁻¹"}, {"measurement": "Km", "setting": "[2]", "value": "44 ± 5", "unit": "µM"}, {"measurement": "kcat", "setting": "[2]", "value": "0.55 ± 0.02", "unit": "s⁻¹"}, {"measurement": "kcat/Km", "setting": "[2]", "value": "13000 ± 1000", "unit": "M⁻¹ s⁻¹"}, {"measurement": "Km", "setting": "[3]", "value": "150 ± 30", "unit": "µM"}, {"measurement": "kcat", "setting": "[3]", "value": "3.9 ± 0.3", "unit": "s⁻¹"}, {"measurement": "kcat/Km", "setting": "[3]", "value": "26000 ± 3000", "unit": "M⁻¹ s⁻¹"}, {"measurement": "Km", "setting": "[4]", "value": "42 ± 4", "unit": "µM"}, {"measurement": "kcat", "setting": "[4]", "value": "0.49 ± 0.02", "unit": "s⁻¹"}, {"measurement": "kcat/Km", "setting": "[4]", "value": "12000 ± 1000", "unit": "M⁻¹ s⁻¹"}, {"measurement": "Km", "setting": "[5]", "value": "380 ± 50", "unit": "µM"}, {"measurement": "kcat", "setting": "[5]", "value": "8.7 ± 0.6", "unit": "s⁻¹"}, {"measurement": "kcat/Km", "setting": "[5]", "value": "23000 ± 2000", "unit": "M⁻¹ s⁻¹"}, {"measurement": "Km", "setting": "[6]", "value": "96 ± 11", "unit": "µM"}, {"measurement": "kcat", "setting": "[6]", "value": "0.86 ± 0.05", "unit": "s⁻¹"}, {"measurement": "kcat/Km", "setting": "[6]", "value": "9000 ± 700", "unit": "M⁻¹ s⁻¹"}, {"measurement": "Km", "setting": "[7]", "value": "220 ± 30", "unit": "µM"}, {"measurement": "kcat", "setting": "[7]", "value": "1.8 ± 0.2", "unit": "s⁻¹"}, {"measurement": "kcat/Km", "setting": "[7]", "value": "8100 ± 600", "unit": "M⁻¹ s⁻¹"}, {"measurement": "Km", "setting": "[8]", "value": "200 ± 30", "unit": "µM"}, {"measurement": "kcat", "setting": "[8]", "value": "1 ± 0.1", "unit": "s⁻¹"}, {"measurement": "kcat/Km", "setting": "[8]", "value": "4900 ± 400", "unit": "M⁻¹ s⁻¹"}, {"measurement": "Km", "setting": "[9]", "value": "26 ± 3", "unit": "µM"}, {"measurement": "kcat", "setting": "[9]", "value": "1.4 ± 0.1", "unit": "s⁻¹"}, {"measurement": "kcat/Km", "setting": "[9]", "value": "55000 ± 5000", "unit": "M⁻¹ s⁻¹"}, {"measurement": "Km", "setting": "[10]", "value": "21 ± 3", "unit": "µM"}, {"measurement": "kcat", "setting": "[10]", "value": "0.88 ± 0.03", "unit": "s⁻¹"}, {"measurement": "kcat/Km", "setting": "[10]", "value": "43000 ± 1000", "unit": "M⁻¹ s⁻¹"}, {"measurement": "Km", "setting": "[11]", "value": "45 ± 6", "unit": "µM"}, {"measurement": "kcat", "setting": "[11]", "value": "1.3 ± 0.1", "unit": "s⁻¹"}, {"measurement": "kcat/Km", "setting": "[11]", "value": "29000 ± 1000", "unit": "M⁻¹ s⁻¹"}, {"measurement": "Km", "setting": "purified protein [12]", "value": "130 ± 20", "unit": "µM"}, {"measurement": "kcat", "setting": "purified protein [12]", "value": 5, "unit": "s⁻¹"}, {"measurement": "kcat/Km", "setting": "purified protein [12]", "value": 39000, "unit": "M⁻¹ s⁻¹"}, {"measurement": "Km", "setting": "purified protein [13]", "value": "40 ± 4", "unit": "µM"}, {"measurement": "kcat", "setting": "purified protein [13]", "value": 0.46, "unit": "s⁻¹"}, {"measurement": "kcat/Km", "setting": "purified protein [13]", "value": 12000, "unit": "M⁻¹ s⁻¹"}]}]}
